Data published in patent publication US10513545B2, “Fusion polypeptide in which anti-inflammatory polypeptide and ferritin monomer fragment are bound and pharmaceutical composition for preventing and treating inflammatory diseases, containing same as active ingredient” (KYUNGPOOK NATIONAL UNIVERSITY INDUSTRY-ACADEMIC COOPERATION …, priority 2015, dated 2019).

T1: EPCR (Mus musculus, UniProt Q64695)
T1 construct: from tissue; host or cells: mouse vena cava
T1 sequence (Q64695 18-242): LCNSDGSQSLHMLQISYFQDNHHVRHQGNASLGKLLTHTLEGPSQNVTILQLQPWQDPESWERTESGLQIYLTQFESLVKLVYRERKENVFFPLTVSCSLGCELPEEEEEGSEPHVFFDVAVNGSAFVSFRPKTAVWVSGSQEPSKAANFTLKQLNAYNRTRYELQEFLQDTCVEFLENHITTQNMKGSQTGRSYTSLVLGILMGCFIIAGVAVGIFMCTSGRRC


Legend:
[1] = tested on: HUVECs; assay: HUVEC cell-binding assay with fluorescence-labeled molecules (in vitro); type: cell-based, human; details: for degree of binding to HUVECs: FIG. 10, compared with PC-Gla; for in vitro binding to endothelial cells compared with PC-Gla: HUVEC, FIG. 12A
Experimental: PC-Gla, TFG, and TFMG were labeled with FNG-456 NHS ester for in vitro assays or FNI-675 NHS ester for in vivo assays at a molar ratio of 1:3. Briefly, each molecule (10 μM) was dissolved in PBS (1.5 mL), and FNG-456 NHS ester (30 μM) or FNI-675 NHS ester (30 μM) was dissolved in DMSO (0.2 mL). Each molecule and fluorescent dye was reacted at room temperature for 3 h. The reaction product was passed through a 0.2-μm filtering unit, and the unreacted dye was separated on a PD midiTrap™ G-25 (GE Healthcare, UK) that had been pre-equilibrated in PBS with 2 mM sodium azide. This process yielded more than 2.17 μM of each nanoparticle with more than 1.5 ratio of dye per protein.
A direct cell-binding assay was performed on HUVECs and in vivo using fluorescence labeled-PC-Gla, TFG, and TFMG. The assay was performed with PC-Gla, TFG, or TFMG treated on HUVECs, intravenously injected mice, and isolated mouse endothelial cells. The fluorescence value of the HUVECs or endothelial cells were measured with tightly bound PC-Gla, TFG, and TFMG, respectively. The concentrations of PC-Gla, TFG, and TFMG were measured by using the nanoparticle ratio of fluorescent dye per protein.

[2] = molecular target: T1, EPCR; assay: histological analysis of EPCR binding in vivo (mouse vena cava); details: injected intravenously, FIG. 11
Experimental: Twenty-four hours prior to CLP surgery, fluorescence labeled-PC-Gla, TFG, and TFMG (200 nM/mouse) was intravenously injected into the mice, respectively. After 24 h, mouse vena cava was enucleated and fixed in visikol for 24 h. Subsequently, vena cava was embedded in optimum cutting temperature (OCT) compound (Tissue Tek) at −80° C. Consecutive sections were incubated with anti-EPCR antibody (Santa Cruz, Calif.), anti-rabbit Alexa 488 (green), anti-CD31 antibody, and anti-rabbit Alexa 350 (blue), and observed by confocal microscopy at 63× magnification (TCS-SP5, Leica microsystem, Germany).

[3] = tested on: CLP-induced sepsis; assay: serum organ injury markers (ALT, AST, creatinine, BUN, LDH) in CLP-induced sepsis; type: in vivo, mouse; details: FIG. 17
Experimental: To induce inflammation, male mice were anesthetized with 2% isoflurane (JW Pharmaceutical, Republic of Korea) in oxygen delivered via a small rodent gas anesthesia machine (RC2, Vetequip, Pleasanton, Calif.), first in a breathing chamber and then via a facemask. They were allowed to breathe spontaneously during this procedure. The CLP-induced inflammation model was prepared as previously described. In brief, a 2-cm midline incision was made to expose the cecum and adjoining intestine. The cecum was then tightly ligated with a 3.0-silk suture at 5.0 mm from the cecal tip and punctured once using a 22-gauge needle for the induction of high grade inflammation. It was then squeezed gently to extrude a small amount of feces from the perforation site and returned to the peritoneal cavity. The laparotomy site was then sutured with 4.0-silk. In sham control animals, the cecum was exposed but not ligated or punctured and then returned to the abdominal cavity. This protocol was approved by the Animal Care Committee at Kyungpook National University prior to the conduct of the study (IRP No, KNU 2012-13).
Fresh serum was used for assaying aspartate transaminase (AST), alanine transaminase (ALT), blood urea nitrogen (BUN), creatinine, and LDH using biochemical kits (Mybiosource). To determine the concentrations of IL-6, IL-10, and TNF-α, commercially available ELISA kits were used according to the manufacturer's protocol (R&D Systems). Values were measured using an ELISA plate reader (Tecan, Austria GmbH, Austria).

[4] = tested on: LPS-stimulated HUVEC cells; assay: in vitro permeability assay (Evans blue-bound albumin flux); type: cell-based, human; details: HUVECs, LPS 100 ng/mL 4 h, up to 100 nM, FIG. 19
Experimental: For spectrophotometric quantification of endothelial cell permeabilities in response to increasing concentrations of each molecule, the flux of Evans blue-bound albumin across functional cell monolayers was measured using a modified 2-compartment chamber model, as previously described. HUVECs were plated (5×10^4/well) in 12-mm diameter Transwells with a pore size of 3 μm for 3 days. Confluent monolayers of HUVECs were exposed to LPS (100 ng/mL) for 4 h before being subjected to PC-Gla with TRAP, TFG, or TFMG (up to 100 nM). Transwell inserts were then washed with TBS (pH 7.4), followed by the addition of Evans blue (0.5 mL; 0.67 mg/mL) diluted in a growth medium containing 4% BSA. Fresh growth medium was then added to the lower chamber, and the medium in the upper chamber was replaced with Evans blue/BSA. Ten minutes later, the optical density of the sample in the lower chamber was measured at 650 nm.

[5] = tested on: VCAM-1, ICAM-1 and E-selectin on HUVECs; assay: expression of cell adhesion molecules (CAMs), whole-cell ELISA; type: cell-based, human; details: LPS 100 ng/mL, FIG. 21A
Experimental: The expression of vascular cell adhesion molecule-1 (VCAM-1), intercellular adhesion molecule-1 (ICAM-1), and E-selectin on HUVECs were determined by a whole-cell ELISA as described. Briefly, confluent monolayers of HUVECs were treated with PC-Gla with TRAP, TFG, or TFMG for 6 h followed by LPS (100 ng/mL) for 16 h (VCAM-1 and ICAM-1) or 24 h (E-Selectin). After washing, mouse anti-human monoclonal VCAM-1 (100 μM; clone; 6C7.1), ICAM-1 (clone; P2A4) and E-selectin (clone; P3H3) antibodies (Millipore Corporation, 1:50 each) were added. After 1 h (37° C., 5% CO2), the cells were washed three times and then 1:2000 peroxidase-conjugated anti-mouse IgG antibody (100 μl; Sigma) was added for 1 h. The cells were washed again three times and developed using the o-phenylenediamine substrate (Sigma). Colorimetric analysis was performed by measuring absorbance at 490 nm. All measurements were performed in triplicate wells.

Molecule	degree of binding to HUVECs [1]	in vitro binding to endothelial cells compared with PC-Gla [1]	in vivo binding by immunohistochemistry [2]	toxicity indicator for general organs (LDH) [3]	toxicity indicators for kidneys (creatinine and BUN) [3]	toxicity indicators for liver (ALT and AST) [3]	in vitro endothelial cell permeability [4]	LPS-mediated upregulation of CAMs [5]
TFMG: as TFG with an MMP-2 cleavable linker (GPLGLAG) between ferritin fragment C-terminus and PC-Gla (apparently SEQ ID NO: 15) (protein, Fusion polypeptide (2)) MGGTTFLLRNASGHMSSQIRQNYSTDVEAAVNSLVNLYLQASYTYLSLGFYFDRDDVALEGVSHFFRELAEEKREGYERLLKMQNQRGGRIFLQDIKKPAEDEWGKTPDAMKAAMALEKKLNQALLDLHALGSARTDPHLCDFLETHFLDEEVKLIKKMGDHLTNLHRLGGGSEFVDGGGSGTSGPLGLAGANSFLEELRHSSLERECIEEICDFEEAKEIFQNVDDTLAFWSKHVLEHHHHHH	strong binding affinities which are equivalent to that of PC-Gla	bound more strongly to, and stayed longer on, endothelial cells than PC-Gla did	colocalized with EPCR and CD31	considerably improved	considerably improved	considerably improved	alleviated	inhibited
TFG: fusion polypeptide: TRAP at N-terminus and PC-Gla at C-terminus of short ferritin monomer fragment, forms nanocage (apparently SEQ ID NO: 14) (protein, Fusion polypeptide (1)) MGGTTFLLRNASGHMSSQIRQNYSTDVEAAVNSLVNLYLQASYTYLSLGFYFDRDDVALEGVSHFFRELAEEKREGYERLLKMQNQRGGRIFLQDIKKPAEDEWGKTPDAMKAAMALEKKLNQALLDLHALGSARTDPHLCDFLETHFLDEEVKLIKKMGDHLTNLHRLGGGSEFVDGGGSGTSANSFLEELRHSSLERECIEEICDFEEAKEIFQNVDDTLAFWSKHVLEHHHHHH	strong binding affinities which are equivalent to that of PC-Gla	bound more strongly to, and stayed longer on, endothelial cells than PC-Gla did	colocalized with EPCR and CD31	considerably improved	considerably improved	considerably improved	alleviated	inhibited
